{"source": "patent EP4413995A1", "about": "(Université de Franche-Comté, dated 2024)", "key": {"[1]": {"biological_target": "T1, CD123 (recombinant, soluble, analyte of the Octet assay) (human, UniProt P26951 19-305)", "T1 chain": "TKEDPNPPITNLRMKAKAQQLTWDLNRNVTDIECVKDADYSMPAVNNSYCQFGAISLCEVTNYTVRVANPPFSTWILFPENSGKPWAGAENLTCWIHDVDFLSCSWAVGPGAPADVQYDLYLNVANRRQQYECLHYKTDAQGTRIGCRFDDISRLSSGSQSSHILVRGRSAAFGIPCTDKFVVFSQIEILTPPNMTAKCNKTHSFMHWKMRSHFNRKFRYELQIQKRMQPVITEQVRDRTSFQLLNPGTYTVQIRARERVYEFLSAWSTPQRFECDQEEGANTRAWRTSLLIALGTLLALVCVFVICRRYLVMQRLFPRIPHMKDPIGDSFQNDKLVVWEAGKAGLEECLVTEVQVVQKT", "assay": "BLI (Octet, ForteBio), antibody immobilized on streptavidin biosensors, CD123 in solution (row of 12.5 nM)"}, "[2]": {"biological_target": "T1, CD123 (recombinant, soluble, analyte of …)", "assay": "BLI (Octet, ForteBio), antibody immobilized on streptavidin biosensors, CD123 in solution (row of 25 nM)"}, "[3]": {"biological_target": "T1, CD123 (recombinant, soluble, analyte of …)", "assay": "BLI (Octet, ForteBio), antibody immobilized on streptavidin biosensors, CD123 in solution (row of 50 nM)"}, "[4]": {"biological_target": "T1, CD123 (recombinant, soluble, analyte of …)", "assay": "BLI (Octet, ForteBio), antibody immobilized on streptavidin biosensors, CD123 in solution (row of 6.25 nM)"}}}
{"binder": "18B4D5 (antibody, V domains shown) VH: EVKLQESGPGLVKPSQSLSLTCTVTGYSITSDYTWNWIRQFPGNKLEWMGYISFSGSTSYNPSLKSRLSITRDTSKNQFFLQLNSVTTEDTATYYCARGLDYWGQGTTLTVSS VL: DIVMTQSPAIMSASLGERVTMTCTASSSISSSYLYWYQQKPGSSPKLWIYSTSNLASGVPARFSGSGSGTSYSLTISSMEAEDAATYYCHQLHRSPWTFGGGTKLEIKR", "values": [{"measurement": "Kd", "setting": "[1]", "result": "< 1", "unit": "pM"}, {"measurement": "koff", "setting": "[1]", "result": "< 1e-07", "unit": "s⁻¹"}, {"measurement": "kon", "setting": "[1]", "result": 122000, "unit": "M⁻¹ s⁻¹"}, {"measurement": "Kd", "setting": "[2]", "result": "< 1", "unit": "pM"}, {"measurement": "koff", "setting": "[2]", "result": "< 1e-07", "unit": "s⁻¹"}, {"measurement": "kon", "setting": "[2]", "result": 122000, "unit": "M⁻¹ s⁻¹"}, {"measurement": "Kd", "setting": "[3]", "result": "< 1", "unit": "pM"}, {"measurement": "koff", "setting": "[3]", "result": "< 1e-07", "unit": "s⁻¹"}, {"measurement": "kon", "setting": "[3]", "result": 122000, "unit": "M⁻¹ s⁻¹"}, {"measurement": "Kd", "setting": "[4]", "result": "< 1", "unit": "pM"}, {"measurement": "koff", "setting": "[4]", "result": "< 1e-07", "unit": "s⁻¹"}, {"measurement": "kon", "setting": "[4]", "result": 122000, "unit": "M⁻¹ s⁻¹"}]}
